# B1: α-Ketoglutarate semialdehyde dehydrogenase (KGSADH) (Caulobacter vibrioides NA1000) (protein)
# chain: MTDTLRHYIGGERVAADAPAESLNPSNTNDVVAKVPMGGQAEVDAAVDAARKAFPAWADASPEVRSDLLDKVGSTIIARSADIGRLLAREEGKTLAEGIGETVRAGRIFKYFAGEALRRHGQNLESTRPGVEIQTYRQAVGVYGLITPWNFPIAIPAWKAAPALAFGNTVVIKPAGPTPATANVLADIMAECGAPAGVFNMLFGRGSMGDALIKHKDVDGVSFTGSQGVGAQVAAAAVARQARVQLEMGGKNPLIVLDDADLERAVAIALDGSFFATGQRCTASSRLIVQDGIHDKFVALLAEKVAALRVGDALDPNTQIGPAVSEDQMETSYRYIDIAASEGGRVVTGGDRIKLDNPGWYVRPTLIADTQAGMRINNEEVFGPVASTIRVKSYEEALEIANGVEFGLSAGIATTSLKHARHFQRYARAGMTMVNLATAGVDYHVPFGGTKSSSYGAREQGFAAVEFFTQTKTSYSWS
# notes: full-length gene in pET vector, N-terminal His tag, E. coli expression, Ni-TED and size exclusion
# B2: Xylonolactonase (XLA) (Caulobacter vibrioides NA1000) (protein)
# chain: MTAQVTCVWDLKATLGEGPIWHGDTLWFVDIKQRKIHNYHPATGERFSFDAPDQVTFLAPIVGATGFVVGLKTGIHRFHPATGFSLLLEVEDAALNNRPNDATVDAQGRLWFGTMHDGEENNSGSLYRMDLTGVARMDRDICITNGPCVSPDGKTFYHTDTLEKTIYAFDLAEDGLLSNKRVFVQFALGDDVYPDGSVVDSEGYLWTALWGGFGAVRFSPQGDAVTRIELPAPNVTKPCFGGPDLKTLYFTTARKGLSDETLAQYPLAGGVFAVPVDVAGQPQHEVRLV
# notes: as for B1
# B3: D-xylose dehydrogenase (XDH) (Caulobacter vibrioides NA1000) (protein)
# chain: MSSAIYPSLKGKRVVITGGGSGIGAGLTAGFARQGAEVIFLDIADEDSRALEAELAGSPIPPVYKRCDLMNLEAIKAVFAEIGDVDVLVNNAGNDDRHKLADVTGAYWDERINVNLRHMLFCTQAVAPGMKKRGGGAVINFGSISWHLGLEDLVLYETAKAGIEGMTRALARELGPDDIRVTCVVPGNVKTKRQEKWYTPEGEAQIVAAQCLKGRIVPENVAALVLFLASDDASLCTGHEYWIDAGWR
# notes: as for B1
# B4: 2-Keto-3-deoxy-D-xylonate dehydratase (KDXD) (Caulobacter vibrioides NA1000) (protein)
# chain: MGVSEFLPEDWKAATLLGRIDFGEGPTPVLVRGGRVEDVSKIAPTVADLMNAFQPGAVIPRGEDKGPLEALDIRPVWEDPDGAAPVKLLAPVDLQCLKAAGVTFAVSTLERVIEERARGDAGEALKIRTLLAERMGGDLKSVEPGSQGAQRLKDALIADGLWSQYLEVAIGPDAEIFTKGPTLSSMGWGDQVGVRYDSHWNNPEPEVVLLCDGSGLIRGAALGNDVNLRDFEGRSALLLSKAKDNNASCAIGPFFRLFDETFGLDDVRSAEVELKITGRDNFVLDGKSNMSLISRDPAVLAGQAYGKQHQYPDGFALFLGTMFAPIQDRDTPGQGFTHKVGDRVRVSTPKLGVLENEVTTCDKAKPWTFGISALIRNLAGRGLL
# notes: as for B1
# Assays:
# [1] = substrate: NC(=O)c1ccc[n+]([C@@H]2O[C@H](COP(=O)(O)OP(=O)(O)OC[C@H]3O[C@@H](n4cnc5c(N)ncnc54)[C@H](O)[C@@H]3O)[C@@H](O)[C@H]2O)c1; experiment: purified protein; format: biochemical, Caulobacter vibrioides; details: 100 mM HEPES/NaOH pH 7.5, 37 °C, varied: cofactor
# [2] = substrate: NC(=O)c1ccc[n+]([C@@H]2O[C@H](COP(=O)(O)OP(=O)(O)OC[C@H]3O[C@@H](n4cnc5c(N)ncnc54)[C@H](OP(=O)(O)O)[C@@H]3O)[C@@H](O)[C@H]2O)c1; experiment: purified protein; format: biochemical, Caulobacter vibrioides; details: 100 mM HEPES/NaOH pH 7.5, 37 °C, varied: cofactor
# [3] = substrate: O=CCCC(=O)C(=O)O; experiment: purified protein; format: biochemical, Caulobacter vibrioides; details: 100 mM HEPES/NaOH pH 7.5, 37 °C, co-substrate NAD+
# [4] = substrate: O=CCCC(=O)O; experiment: purified protein; format: biochemical, Caulobacter vibrioides; details: 100 mM HEPES/NaOH pH 7.5, 37 °C, NAD(P)+
# [5] = substrate: O=CCCCC=O; experiment: purified protein; format: biochemical, Caulobacter vibrioides; details: 100 mM HEPES/NaOH pH 7.5, 37 °C, NAD(P)+
# [6] = substrate: O=C1O[C@H](CO)[C@H](O)[C@H]1O; experiment: purified protein; format: biochemical, Caulobacter vibrioides; details: 100 mM HEPES/NaOH pH 7.5, 37 °C, 5 mM NAD+
# [7] = substrate: NC(=O)c1ccc[n+]([C@@H]2O[C@H](COP(=O)(O)OP(=O)(O)OC[C@H]3O[C@@H](n4cnc5c(N)ncnc54)[C@H](O)[C@@H]3O)[C@@H](O)[C@H]2O)c1; experiment: purified protein, by the assay type; design: initial rate kinetics of purified recombinant enzyme, classical Michaelis-Menten fit
# Description: The five genes of the D-xylose operon, i.e., CCNA_00862–00866, were amplified by PCR using gene-specific primers (Supplementary Table 1) and the genomic DNA of C. crescentus NA1000 as template. The PCR products were cloned into pET (Novagen) expression vectors (Supplementary Table 1) and successful cloning was confirmed by sequencing (LGC genomics, Berlin). For expression, the respective plasmids were transformed into the E. coli BL21-pRIL (DE3) or Rosetta (DE3, Stratagene) (Supplementary Table 1). Overexpression was performed in LB medium containing the appropriate antibiotic. The cells were grown at 37 °C to an OD600 of 0.6–0.7 and induced with 1 mM isopropyl-β-D-thiogalactopyranoside. After induction, the cultures were further incubated at 37 °C for 4 h or at 30 °C or at 21 °C for 18–22 h (Supplementary Table 1), respectively. Cells were collected by centrifugation (15 min, 8630 × g, 4 °C) and the pellets were stored at −70 °C. Due to the choice of the vectors, all of the C. crescentus enzymes were N-terminally histidine tagged. The recombinant L-isoleucine dioxygenase from B. thuringiensis (BtDO) contained a C-terminal 6× histidine tag[47]. […] For XLA and KDXD, the inhibition constants for D-xylonate and KGSA, respectively, had to be fitted based on the conversion data, as these enzymes are analysed in coupled enzyme assays. […]
# [8] = substrate: O=C(O)C(=O)C[C@H](O)CO; experiment: purified protein; format: biochemical, Caulobacter vibrioides; details: 100 mM HEPES/NaOH pH 7.5, 37 °C, 5 mM NAD+
protein,measurement,setting,value
B1,Km,[1]; co-substrate KGSA,600 µM
same,Vmax,[1]; co-substrate KGSA,49 µmol/min/mg
same,kcat,[1]; co-substrate KGSA,41 s⁻¹
same,kcat/Km,[1]; co-substrate KGSA,68000 M⁻¹ s⁻¹
same,Km,[2],20 µM
same,Km,[3],20 µM
same,Vmax,[3],49 µmol/min/mg
same,kcat,[3],41 s⁻¹
same,kcat/Km,[3],2.05e+06 M⁻¹ s⁻¹
same,Km,[4],400 µM
same,Km,[5],2510 µM
B2,Km,[6],450 µM
same,Vmax,[6],944 µmol/min/mg
same,kcat,[6],497 s⁻¹
same,kcat/Km,[6],1.1e+06 M⁻¹ s⁻¹
B3,Km,[1]; co-substrate D-xylose,160 µM
same,Vmax,[1]; co-substrate D-xylose,120 µmol/min/mg
same,kcat,[1]; co-substrate D-xylose,57 s⁻¹
same,kcat/Km,[1]; co-substrate D-xylose,356000 M⁻¹ s⁻¹
same,Km,[7],170 µM
B4,Km,[8],210 µM
same,Vmax,[8],107 µmol/min/mg
same,kcat,[8],74 s⁻¹
same,kcat/Km,[8],352000 M⁻¹ s⁻¹

# From publication PMC7046635, “A combined experimental and modelling approach for the Weimberg pathway optimisation” (Nature Communications, 2020)
